# Assay results as given in patent US20090004206A1 (ALETHIA BIOTHERAPEUTICS, published 2009).
# B1: GST-d2 (GST fusion protein of the human v-ATPase d2 subunit, polypeptide SEQ ID NO.:154 encoded by SEQ. ID. NO. 89) (other)
# chain: not shown
# notes: also called AB0179 human orthologue; not shown: glutathione S-transferase (GST) tag of the prokaryotic expression vector pGEX-2T (Pharmacia, GE Healthcare)
# Biological target: T1, Flag-tagged mouse v-ATPase a4 subunit fragment (amino acids 1-388) (mouse, UniProt Q920R6 1-388)
# T1 construct: range 1-388; Expressed in 293FT cells from pCMX-Flag/v-ATPase-a4 and used as cell lysate; also called Flag-tagged a4; not shown: Flag tag of vector pCMX-Flag
# Test: GST pull-down from 293FT lysate, anti-Flag Western blot
# Description: ID. NO. 89 (d2) (SEQ ID NO.:154) was cloned into the prokaryotic expression vector, pGEX-2T (Pharmacia, GE Healthcare), expressed as a GST fusion protein in E. coli and purified with glutathione beads. In parallel, cDNA fragments of mouse v-ATPase-a3 (amino acids 1-385) and v-ATPase a4 (amino acids 1-388) were cloned into the eukaryotic expression vector, pCMX-Flag in order to express a Flag-tagged a3 subunit or a4 subunit in mammalian cells. The pCMX-Flag/v-ATPase-a3 and pCMX-Flag/v-ATPase-a4 recombinant plasmids were transfected in 293FT cells and cell lysates were generated in which, the v-ATPase-a3 and v-ATPase-a4 FLAG-tagged polypeptides were readily detected with an anti-Flag antibody (FIG. 21B, II, upper panel).
# In order to measure the interaction between d2 (SEQ. ID. NO. 89) and a3 or a4, equal amounts of 293FT lysates containing either Flag-tagged a3 or a4 were incubated with purified GST or GST-d2 at 4° C. for 90 minutes under mild agitation. After washing, the protein mixes were separated on a SDS-PAGE and transferred to PVDF membrane. […] Clearly, only the a3 fragment could be detected in the GST-d2 reactions compared to the GST reactions indicating a specific interaction between d2 and a3 (FIG. 21B, I-a3, upper panel) but not between d2 and a4 (FIG. 21B, I-a4, upper panel). […]
# T1 sequence (Q920R6 1-388): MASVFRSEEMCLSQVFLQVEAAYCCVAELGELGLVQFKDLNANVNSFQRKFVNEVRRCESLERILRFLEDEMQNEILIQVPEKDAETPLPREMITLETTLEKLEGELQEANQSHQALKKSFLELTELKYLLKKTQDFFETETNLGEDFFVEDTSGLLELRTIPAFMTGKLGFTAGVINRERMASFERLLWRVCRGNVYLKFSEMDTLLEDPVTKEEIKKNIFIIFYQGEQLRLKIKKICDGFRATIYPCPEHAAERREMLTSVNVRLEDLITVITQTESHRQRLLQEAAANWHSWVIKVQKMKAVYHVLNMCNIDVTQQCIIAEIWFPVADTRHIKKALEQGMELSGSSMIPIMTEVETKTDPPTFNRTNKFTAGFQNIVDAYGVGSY
binder,measurement,value
B1,binding result,no binding
